Substitutions are numbered along the chain they refer to.

By IC50 is commonly meant the concentration that inhibits the measured activity by half. As usually defined, the EC50 is the concentration needed to bring the measured effect to its halfway point. Broadly, the Kd is the constant that tells how readily two partners part at equilibrium. In general, koff refers to the first-order rate constant of dissociation. What is called kon is the rate constant with which the complex forms.

Test [1] has as its target T1, hTSLP-His (human, UniProt Q969D9 29-159, limits assumed).
T1 construct: bought; also called hTSLP (ACROBiosystems TSP-H52Hb); not shown: His tag
Nature of the test: competition ELISA, TSLP-R coated, soluble TSLP-R as competitor for hTSLP.

Test [2] has as its target BSA (UniProt P02769 25-607). Nature of the test: ELISA, 250 ng coated ligand per well, 100 nM IgG, anti-human Fc-HRP. A general note: In an ELISA, binding on a coated surface is turned into a signal by an enzyme label.
Test [3] deals with T2, recombinant human IL-13 (human, UniProt P35225 35-146). Nature of the test: cell-based or functional assay.
T2 sequence (P35225 35-146 limits assumed): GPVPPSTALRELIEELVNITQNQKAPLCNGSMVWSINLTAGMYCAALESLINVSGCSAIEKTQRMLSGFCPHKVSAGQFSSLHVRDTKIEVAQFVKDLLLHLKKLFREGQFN
The target in test [4] is T3, recombinant cynomolgus monkey IL-13 (cynomolgus monkey, UniProt Q0PW92 21-132).
T3 construct: bought; also called rc-IL-13; cIL-13
T3 sequence (Q0PW92 entry or part of it): as the sequence (P35225 35-146 limits assumed) above, with G1S, R10K, M42V, S67N, H83R, L100V counted along it
As to the kind of experiment: ELISA, ligand coated, IgG 1-1000 nM.

In test [5] the target is T4, cynomolgus monkey (cyno) TSLP (cynomolgus monkey, UniProt A0A7N9CAT7 29-159).
T4 construct: also called cTSLP; cynomolgus TSLP
T4 sequence (A0A7N9CAT7 entry or part of it): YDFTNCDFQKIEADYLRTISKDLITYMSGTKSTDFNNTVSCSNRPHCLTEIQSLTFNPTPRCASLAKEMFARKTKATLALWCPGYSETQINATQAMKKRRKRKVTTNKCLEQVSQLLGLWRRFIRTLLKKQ
As to the kind of experiment: ELISA, ligand coated, IgG 1-1000 nM.

Test [6] concerns the target T5, human TSLP (human, UniProt Q969D9 29-159).
T5 construct: also called hTSLP; rhTSLP
As to the kind of experiment: ELISA, ligand coated, IgG 1-1000 nM.

The target of test [7] is T6, IL-2 (Homo sapiens (Human), UniProt P60568 21-153). Nature of the test: specificity ELISA, 250 ng ligand coated.
T6 sequence (P60568 21-153 limits assumed): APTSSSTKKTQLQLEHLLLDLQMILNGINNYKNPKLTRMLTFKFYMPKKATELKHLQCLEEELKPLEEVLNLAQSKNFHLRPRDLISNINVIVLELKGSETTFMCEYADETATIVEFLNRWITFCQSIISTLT
Test [8] concerns the target T2, recombinant human IL-13. As to the kind of experiment: SPR (Biacore T200), antibody captured, hIL-13 analyte 20-0.6 nM. (In general: SPR reads the build-up and loss of mass on a sensor chip optically.)
Description: Recombinant cyno IL-13 (rc-IL-13) was tested at 200 nM with a 2-fold dilution (FIGS. 5C-5D).
Test [9] addresses T7, IL-4 (Homo sapiens (Human), UniProt P05112 25-153).
T7 sequence: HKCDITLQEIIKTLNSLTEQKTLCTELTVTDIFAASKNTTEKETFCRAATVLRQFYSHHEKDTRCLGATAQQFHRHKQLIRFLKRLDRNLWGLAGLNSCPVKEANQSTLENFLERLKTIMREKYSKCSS
As to the kind of experiment: ELISA, 250 ng coated ligand per well, 100 nM IgG, anti-human Fc-HRP.

Test [10] has as its target T6, IL-2. The test is described as above.
Test [11] concerns the target T2, recombinant human IL-13. As to the kind of experiment: SPR.
The target in test [12] is T1, hTSLP-His. As to the kind of experiment: cell-based or functional assay.
Test [13] deals with T1, hTSLP-His. As to the kind of experiment: competition ELISA, TSLP-R-Fc coated, 3 nM hTSLP-His pre-mixed with IgG.
Excerpt: Wells were then washed three times with TBS 0.05% tween (TBS-T) and blocked with TBS-T containing 2% BSA (w/v).
Test [14] addresses T5, human TSLP. As to the kind of experiment: SPR.

Sequence of BSA (P02769 25-607 limits assumed): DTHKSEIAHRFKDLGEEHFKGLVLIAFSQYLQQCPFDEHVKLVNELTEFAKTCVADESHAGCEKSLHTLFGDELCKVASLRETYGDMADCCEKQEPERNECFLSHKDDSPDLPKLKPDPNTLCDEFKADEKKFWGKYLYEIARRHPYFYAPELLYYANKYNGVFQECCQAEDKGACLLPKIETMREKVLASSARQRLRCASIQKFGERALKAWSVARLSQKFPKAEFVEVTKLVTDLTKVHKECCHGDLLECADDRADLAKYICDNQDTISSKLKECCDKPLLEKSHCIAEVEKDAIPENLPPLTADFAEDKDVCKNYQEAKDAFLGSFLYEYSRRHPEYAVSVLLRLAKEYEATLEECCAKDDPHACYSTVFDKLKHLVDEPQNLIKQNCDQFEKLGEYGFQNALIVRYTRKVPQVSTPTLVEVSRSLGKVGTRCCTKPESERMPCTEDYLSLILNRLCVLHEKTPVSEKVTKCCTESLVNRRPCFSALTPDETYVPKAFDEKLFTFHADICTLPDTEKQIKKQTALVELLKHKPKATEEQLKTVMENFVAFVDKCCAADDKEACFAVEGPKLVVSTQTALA

B1: TSLP-R-Fc tag (Fc fusion, UniProt Q9HC73 23-231, looked up)
chain: QGGAAEGVQIQIIYFNLETVQVTWNASKYSRTNLTFHYRFNGDEAYDQCTNYLLQEGHTSGCLLDAEQRDDILYFSIRNGTHPVFTASRWMVYYLKPSSPKHVRFSWHQDAVTVTCSDLSYGDLLYEVQYRSPFDTEWQSKQENTCNVTIEGLDAEKCYSFWVRVKAMEDVYGPDTYPSDWSEVTCWQRGEIRDACAETPTPPKPKLSK
notes: bought; also called TSLP receptor; not shown: Fc tag
In turn, B1 displayed a concentration for half-maximal inhibition (IC50) in [1] of 3 nM.

B2: BDG33.025 (antibody, V domains shown)
VH: QMQLVESGGGVVQPGRSLRLSCAASGFTFRTYGMHWVRQAPGKGLEWVADIWYDGSNKHYADSVKGRFTITRDNSKNTLNLQMNSLRAEDTAVYYCARAPQWYLVAEPFDLWGQGTMVTVSS
VL: SYVLTQPPSVSVAPGQTARITCGGNLIGSKLVHWYQQKPGQAPVLVVYDDSDRPSLIPERFSGSNSGNTATLTISRVEAGDEADYYCQVWDSSSDGVVFGGGTKLTVL
notes: standard IgG; also called BGD33.025; BDG33.0025
Regarding B2, the binding result in [2] was “no binding (tested: 100 nM)”; in test [7], “no binding (tested: 100 nM IgG)”. Moreover, in test [3], the “IC50, HEK-Blue IL-4/IL-13 reporter (0.4 nM rh-IL-13)” value amounted to 25 nM. Moreover, the EC50 was 1.5 nM in test [4], 148 nM in [5] and 12.8 nM in [6]. For the same molecule, the Kd in [8] was determined as 0.903 nM. For the same molecule, in [8], the koff is 0.0036 s⁻¹. In addition, in test [8], the kon stood at 4.07e+06 M⁻¹ s⁻¹.

B3: BDG33.023 (antibody, V domains shown)
VH: B2 VH with T28A, D50V, K58T, V105S, P108A
VL: B2 VL with L56R, S92H, G96H
notes: standard IgG; also called BGD33.023; BDG33.0023
Take B3: the binding result in [9], in test [10] and in [2] was “no binding (tested: 100 nM)” throughout. In addition, the Kd in test [11] stood at 3.01 nM; in test [8], 3.65 nM; in test [14], 0.0625 nM. In addition, the values for the koff in [11], in test [8] and in test [14] were 0.00457 s⁻¹, 0.0157 s⁻¹ and 6.84e-05 s⁻¹, respectively. The values for the kon in [11], in test [8] and in test [14] were 1.52e+06 M⁻¹ s⁻¹, 4.31e+06 M⁻¹ s⁻¹ and 1.09e+06 M⁻¹ s⁻¹, respectively. In addition, in [3], the “IC50, HEK-Blue IL-4/IL-13 reporter (0.4 nM rh-IL-13)” value stood at 1.3 nM. In test [12], the “IC50, TSLP dependent pSTAT5 activation in MUTZ5 cells (14 pM TSLP)” value came out at 13 pM. In [13], this molecule gave an IC50 of 0.41 nM. Moreover, the EC50 in test [4] is 7.1 nM; in test [5] it was 8.2 nM; in test [6] it was 2.5 nM.

These data come from patent US20240059769A1 (BIOLOJIC DESIGN, published 2024).
